Results from article PMC7494997.

Assays:
Human PSGL-1-Fc (human) = Human PSGL-1-Fc (human) (UniProt Q14242); assay: ELISA; binding curves of the VISTA-Fc mutants E125A and F62A (Supplementary Fig. S6D, S6E); conditions not given
hVSIG3-Fc (human) = hVSIG3-Fc (human) (UniProt Q5DX21); assay: as above
hVSIG3-Fc (human), sequence (Q5DX21 23-241): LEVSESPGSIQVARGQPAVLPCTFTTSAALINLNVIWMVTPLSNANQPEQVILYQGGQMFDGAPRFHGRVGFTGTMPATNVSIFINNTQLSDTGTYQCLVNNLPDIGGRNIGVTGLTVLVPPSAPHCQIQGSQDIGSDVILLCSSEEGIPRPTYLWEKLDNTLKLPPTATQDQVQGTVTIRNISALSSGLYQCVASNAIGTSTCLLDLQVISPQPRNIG

Human PSGL-1-Fc (human), sequence (Q14242 42-320): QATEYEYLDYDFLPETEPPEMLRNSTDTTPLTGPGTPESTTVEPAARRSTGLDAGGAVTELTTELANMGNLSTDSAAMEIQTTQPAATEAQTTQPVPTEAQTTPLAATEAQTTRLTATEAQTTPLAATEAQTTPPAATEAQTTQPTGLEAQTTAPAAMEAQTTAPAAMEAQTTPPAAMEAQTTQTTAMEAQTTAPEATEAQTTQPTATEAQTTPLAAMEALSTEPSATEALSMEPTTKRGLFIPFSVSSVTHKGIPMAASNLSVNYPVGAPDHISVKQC

fold affinity over the WT VISTA interaction (Human PSGL-1-Fc (human)) [fold]	fold affinity over the WT VISTA interaction (hVSIG3-Fc (human)) [fold]	Substance
> 2		soluble hVISTA-Fc E125A (Fc fusion)
	> 2	soluble hVISTA-Fc F62A (Fc fusion)
